This is an account of results in patent US20180057581A1.

B1: Blanche, IgG1_D265A (antibody, V domains shown)
VH: QVQLQQSGPGLVKPSQTLSLTCAISGDSVSSNSAAWNWIRQSPSRGLEWLGRTYYRSKWKHEYAMSVKSRITINPDTSKNQFSLQLNSVTPEDTAVYYCARDRYYYSAFDYWGQGTLVTVSS
VL: DIALTQPASVSGSPGQSITISCTGTSSDVGGYNSVSWYQQHPGKAPKLMIYAVSNRPSGVSNRFSGSKSGNTASLTISGLQAEDEADYYCASYDERFTRVFGGGTKLTVLGQ
B2: Maelle, IgG1_D265A (antibody, V domains shown)
VH: QVQLQQSGPGLVKPSQTLSLTCAISGESVSTSSAAWNWIRQSPSRGLEWLGRTYYRSKWKKEYAQSVKSRITINPDTSKNQFSLQLNSVTPEDTAVYYCARDRYYYSAFDYWGQGTLVTVSS
VL: QSALTQPASVSGSPGQSITISCTGTSSDVGGYNSVSWYQQHPGKAPKLIIYAVSNRPSGVSNRFSGSKSGNTASLTISGLQAEDEADYYCASYDERFTRVFGGGTKLTVLGQ
B3: Meriem, IgG1_D265A (antibody, V domains shown)
VH: QVQLQQSGPGLVKPSQTLSLTCAISGDSVSTSSAAWNWIRQSPSRGLEWLGRTYYRSKWKKEYAQSVKSRITINPDTSKNQFSLQLNSVTPEDTAVYYCARDRYYYSAFDYWGQGTLVTVSS
VL: QSALTQPASVSGSPGQSITISCTGTSSDVGGYNSVSWYQQHPGKAPKLIIYAVSNRPSGVSNRFSGSKSGNTASLTISGLQAEDEADYYCASYDERFTRVFGGGTKLTVLGQ
B4: Caline, IgG1_D265A (antibody, V domains shown)
VH: QVQLQQSGPGLVKPSQTLSLTCAISGDSVSSNSAAWNWIRQSPSRGLEWLGRTYYRSKWKHEYAMSVKSRITINPDTSKNQFSLQLNSVTPEDTAVYYCARDRYYYSAFDYWGQGTLVTVSS
VL: QSALTQPASVSGSPGQSITISCTGTSSDVGGYNSVSWYQQHPGKAPKLMIYAVSNRPSGVSNRFSGSKSGNTASLTISGLQAEDEADYYCASYDERFTRVFGGGTKLTVLGQ
B5: Madeleine, IgG1_D265A (antibody, V domains shown)
VH: QVQLQQSGPGLVKPSQTLSLTCAISGDSVSSNSAAWNWIRQSPSRGLEWLGRTYYRSKWKKEYAQSVKSRITINPDTSKNQFSLQLNSVTPEDTAVYYCARDRYYYSAFDYWGQGTLVTVSS
VL: QSALTQPASVSGSPGQSITISCTGTSSDVGGYNSVSWYQQHPGKAPKLMIYAVSNRPSGVSNRFSGSKSGNTASLTISGLQAEDEADYYCASYDERFTRVFGGGTKLTVLGQ
B6: Laurine, IgG1_D265A (antibody, V domains shown)
VH: QVQLQQSGPGLVKPSQTLSLTCAISGDSVSSNSAAWNWIRQSPSRGLEWLGRTYYRSKWKKEYAQSVKSRITINPDTSKNQFSLQLNSVTPEDTAVYYCARDRYYYSAFDYWGQGTLVTVSS
VL: DIALTQPASVSGSPGQSITISCTGTSSDVGGYNSVSWYQQHPGKAPKLMIYAVSNRPSGVSNRFSGSKSGNTASLTISGLQAEDEADYYCASYDERFTRVFGGGTKLTVLGQ
B7: Celine, IgG1_D265A (antibody, V domains shown)
VH: QVQLQQSGPGLVKPSQTLSLTCAISGDSVSTSSAAWNWIRQSPSRGLEWLGRTYYRSKWKHEYAVSVKSRITINPDTSKNQFSLQLNSVTPEDTAVYYCARDRYYYSAFDYWGQGTLVTVSS
VL: QSALTQPASVSGSPGQSITISCTGTSSDVGGYNSVSWYQQHPGKAPKLIIYAVSNRPSGVSNRFSGSKSGNTASLTISGLQAEDEADYYCASYDERFTRVFGGGTKLTVLGQ
B8: Camille, IgG1_D265A (antibody, V domains shown)
VH: QVQLQQSGPGLVKPSQTLSLTCAISGESVSTSSAAWNWIRQSPSRGLEWLGRTYYRSKWKHEYAVSVKSRITINPDTSKNQFSLQLNSVTPEDTAVYYCARDRYYYSAFDYWGQGTLVTVSS
VL: QSALTQPASVSGSPGQSITISCTGTSSDVGGYNSVSWYQQHPGKAPKLLIYAVSNRPSGVSNRFSGSKSGNTASLTISGLQAEDEADYYCASYDERFTRVFGGGTKLTVLGQ
B9: Camille (format not stated) (antibody, V domains shown)
VH: QVQLQQSGPGLVKPSQTLSLTCAISGESVSTSSAAWNWIRQSPSRGLEWLGRTYYRSKWKHEYAVSVKSRITINPDTSKNQFSLQLNSVTPEDTAVYYCARDRYYYSAFDYWGQGTLVTVSS
VL: QSALTQPASVSGSPGQSITISCTGTSSDVGGYNSVSWYQQHPGKAPKLLIYAVSNRPSGVSNRFSGSKSGNTASLTISGLQAEDEADYYCASYDERFTRVFGGGTKLTVLGQ
B10: HeRX1-10G1, IgG1 (antibody, V domains shown)
VH: QVQLQESGPGLVKPSQTLSLTCTVSDYSITSDYAWNWIRQFPGKGLEWMGYISYSGSTSYNPSLKSRITISRDTSKNQFSLQLNSVTAADTAVYYCASFDYAHAMDYWGQGTTVTVSS
VL: DIVLTQSPAFLSVTPGEKVTFTCQASQSIGTSIHWYQQKTDQAPKLLIKYASESISGIPSRFSGSGSGTDFTLTISSVEAEDAADYYCQQINSWPTTFGGGTKLEIKRT
B11: HeRX1-10G1, IgG1_D265A (antibody, V domains shown)
VH: QVQLQESGPGLVKPSQTLSLTCTVSDYSITSDYAWNWIRQFPGKGLEWMGYISYSGSTSYNPSLKSRITISRDTSKNQFSLQLNSVTAADTAVYYCASFDYAHAMDYWGQGTTVTVSS
VL: DIVLTQSPAFLSVTPGEKVTFTCQASQSIGTSIHWYQQKTDQAPKLLIKYASESISGIPSRFSGSGSGTDFTLTISSVEAEDAADYYCQQINSWPTTFGGGTKLEIKRT
B12: HeRX1-10G1 (format not stated) (antibody, V domains shown)
VH: QVQLQESGPGLVKPSQTLSLTCTVSDYSITSDYAWNWIRQFPGKGLEWMGYISYSGSTSYNPSLKSRITISRDTSKNQFSLQLNSVTAADTAVYYCASFDYAHAMDYWGQGTTVTVSS
VL: DIVLTQSPAFLSVTPGEKVTFTCQASQSIGTSIHWYQQKTDQAPKLLIKYASESISGIPSRFSGSGSGTDFTLTISSVEAEDAADYYCQQINSWPTTFGGGTKLEIKRT
B13: Romaine, IgG1_D265A (antibody, V domains shown)
VH: EVQLVESGGGLVKPGGSLRLSCAASGFTFSIYAMSWVRQAPGKGLEWVGRIKSNADGGTTEYAAPVKGRFTISRDDSKNTLYLQMNSLKTEDTAVYYCARMRYYSDLYFDPWGQGTLVTVSS
VL: DIELTQPPSVSVSPGQTASITCSGDAIGSKYVHWYQQKPGQAPVLVISKDNKRPSGIPERFSGSNSGNTATLTISGTQAEDEADYYCQTATVSSYWWVFGGGTKLTVLGQ
B14: Satine, IgG1_D265A (antibody, V domains shown)
VH: EVQLVESGGGLVKPGGSLRLSCAASGFTFSIYAMSWVRQAPGKGLEWVGRIKSNADGGTTEYAAPVKGRFTISRDDSKNTLYLQMNSLKTEDTAVYYCARMRYYSDLYFDPWGQGTLVTVSS
VL: SYELTQPPSVSVSPGQTASITCSGDKLGQKYVSWYQQKPGQSPVLVISQDRKRPSGIPERFSGSNSGNTATLTISGTQAEDEADYYCQTWTHLQWVFGGGTKLTVLGQ
B15: Servane, IgG1_D265A (antibody, V domains shown)
VH: EVQLVESGGGLVKPGGSLRLSCAASGFTFSTYAISWVRQAPGKGLEWVGFIKSKHNSGTTEYAAPVKGRFTISRDDSKNTLYLQMNSLKTEDTAVYYCARMRYYSDLYFDPWGQGTLVTVSS
VL: SYELTQPPSVSVSPGQTASITCSGDKLGQKYVSWYQQKPGQSPVLVISQDRKRPSGIPERFSGSNSGNTATLTISGTQAEDEADYYCQTWTHLQWVFGGGTKLTVLGQ
B16: Caline, IgG1_D265A (antibody, V domains shown)
VH: QVQLQQSGPGLVKPSQTLSLTCAISGDSVSSNSAAWNWIRQSPSRGLEWLGRTYYRSKWKHEYAMSVKSRITINPDTSKNQFSLQLNSVTPEDTAVYYCARDRYYYSAFDYWGQGTLVTVSS
VL: QSALTQPASVSGSPGQSITISCTGTSSDVGGYNSVSWYQQHPGKAPKLMIYAVSNRPSGVSNRFSGSKSGNTASLTISGLQAEDEADYYCASYDERFTRVFGGGTKLTVLG
B17: Celine, IgG1_D265A (antibody, V domains shown)
VH: QVQLQQSGPGLVKPSQTLSLTCAISGDSVSTSSAAWNWIRQSPSRGLEWLGRTYYRSKWKHEYAVSVKSRITINPDTSKNQFSLQLNSVTPEDTAVYYCARDRYYYSAFDYWGQGTLVTVSS
VL: QSALTQPASVSGSPGQSITISCTGTSSDVGGYNSVSWYQQHPGKAPKLIIYAVSNRPSGVSNRFSGSKSGNTASLTISGLQAEDEADYYCASYDERFTRVFGGGTKLTVLG
B18: Blanche, IgG1_D265A (antibody, V domains shown)
VH: QVQLQQSGPGLVKPSQTLSLTCAISGDSVSSNSAAWNWIRQSPSRGLEWLGRTYYRSKWKHEYAMSVKSRITINPDTSKNQFSLQLNSVTPEDTAVYYCARDRYYYSAFDYWGQGTLVTVSS
VL: DIALTQPASVSGSPGQSITISCTGTSSDVGGYNSVSWYQQHPGKAPKLMIYAVSNRPSGVSNRFSGSKSGNTASLTISGLQAEDEADYYCASYDERFTRVFGGGTKLTVLG

In the first assay the target is native human M-CSF (in human serum or in MDA-MB-231 conditioned medium) (human), P09603. The assay is described as follows: cell-based or functional assay.
Sequence of native human M-CSF (in human serum or in MDA-MB-231 conditioned medium) (human), P09603 (P09603 33-255): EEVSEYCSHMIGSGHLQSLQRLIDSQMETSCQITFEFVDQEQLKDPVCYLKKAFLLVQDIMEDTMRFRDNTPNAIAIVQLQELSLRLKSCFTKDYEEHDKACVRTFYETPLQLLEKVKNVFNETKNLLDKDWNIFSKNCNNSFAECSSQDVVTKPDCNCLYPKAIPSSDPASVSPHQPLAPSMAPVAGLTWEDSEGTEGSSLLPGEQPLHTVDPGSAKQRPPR
Regarding B1, the IC50, inhibition of M-NFS-60 proliferation induced by MDA-MB-231 conditioned medium is 0.12 nM and the IC50, inhibition of M-NFS-60 proliferation induced by human serum (50%) was found to be 0.0183 nM. The corresponding values for B2 are 0.0989 nM and 0.016 nM.

In turn, B3 registered an IC50, inhibition of M-NFS-60 proliferation induced by MDA-MB-231 conditioned medium of 0.0769 nM and an IC50, inhibition of M-NFS-60 proliferation induced by human serum (50%) of 0.0151 nM. In the same order, the values of B4 are 0.107 nM and 0.0177 nM. As for B5, the IC50, inhibition of M-NFS-60 proliferation induced by MDA-MB-231 conditioned medium is 0.0754 nM and the IC50, inhibition of M-NFS-60 proliferation induced by human serum (50%) was 0.02 nM.

As to B6, the IC50, inhibition of M-NFS-60 proliferation induced by MDA-MB-231 conditioned medium was determined as 0.095 nM and the IC50, inhibition of M-NFS-60 proliferation induced by human serum (50%) was 0.0156 nM.

As for B7, the IC50, inhibition of M-NFS-60 proliferation induced by MDA-MB-231 conditioned medium was 0.0724 nM and the IC50, inhibition of M-NFS-60 proliferation induced by human serum (50%) stood at 0.0238 nM. The corresponding values for B8 are 0.0985 nM and 0.0177 nM. With B9, the Cell viability assay (IC50), Human serum M-CSF is 0.018 nM and the Cell viability assay (IC50), MDA-MB-231 stood at 0.099 nM.

B10 displayed an IC50, inhibition of M-NFS-60 proliferation induced by MDA-MB-231 conditioned medium of 0.0903 nM and an IC50, inhibition of M-NFS-60 proliferation induced by human serum (50%) of 0.0154 nM. The corresponding values for B11 are 0.0591 nM and 0.0124 nM. In turn, B12 showed a Cell viability assay (IC50), Human serum M-CSF of 0.015 nM and a Cell viability assay (IC50), MDA-MB-231 of 0.09 nM. Molecule B13 gave an IC50, inhibition of M-NFS-60 proliferation induced by MDA-MB-231 conditioned medium of 0.0833 nM and an IC50, inhibition of M-NFS-60 proliferation induced by human serum (50%) of 0.0252 nM. B14: the IC50, inhibition of M-NFS-60 proliferation induced by MDA-MB-231 conditioned medium turned out to be 0.0708 nM and the IC50, inhibition of M-NFS-60 proliferation induced by human serum (50%) came to 0.0318 nM.

B15 showed an IC50, inhibition of M-NFS-60 proliferation induced by MDA-MB-231 conditioned medium of 0.107 nM and an IC50, inhibition of M-NFS-60 proliferation induced by human serum (50%) of 0.0932 nM.

The next assay concerns the target M-CSF endogenously expressed on MDA-MB-231 cells (human) (UniProt P09603). The experiment in a line: FACS, MDA-MB-231 cells endogenously expressing M-CSF (n = 2). Background: Flow cytometry measures light scatter and fluorescence of single cells or particles in a stream.
B16 showed an EC50 of 14 nM. On the same count and under the same terms, the same measure for B17: 13 nM. The same measure, in the same setting: the same measure for B18: 10 nM.

As a reminder, the EC50 is the concentration that produces a half-maximal response. The low end stands for higher potency in that assay, the high end for lower potency in that assay.
